Test results taken from publication PMC2896262 (Structure (London, England : 1993), 2009).

T1: soNrtR (Shewanella oneidensis, UniProt Q8EFJ3 1-237)
T1 sequence: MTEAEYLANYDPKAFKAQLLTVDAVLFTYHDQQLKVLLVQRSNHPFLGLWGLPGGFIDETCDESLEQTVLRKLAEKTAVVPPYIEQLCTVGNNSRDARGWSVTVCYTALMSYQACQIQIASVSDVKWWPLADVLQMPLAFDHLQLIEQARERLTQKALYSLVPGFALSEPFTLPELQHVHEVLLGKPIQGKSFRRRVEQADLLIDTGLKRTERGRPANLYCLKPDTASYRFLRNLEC

B1: N-terminal domain of soNrtR (residues 1-159) (domain or fragment, Shewanella oneidensis, UniProt Q8EFJ3 1-159, looked up)
chain: MTEAEYLANYDPKAFKAQLLTVDAVLFTYHDQQLKVLLVQRSNHPFLGLWGLPGGFIDETCDESLEQTVLRKLAEKTAVVPPYIEQLCTVGNNSRDARGWSVTVCYTALMSYQACQIQIASVSDVKWWPLADVLQMPLAFDHLQLIEQARERLTQKALY
B2: 28-nt NrtR-box DNA (dsDNA)
DNA 1: CGTAATAGTGTCTTAAAGACACTATTAC
DNA 2: CGTAATAGTGTCTTTAAGACACTATTAC

What was measured:
crystal structure = target: the molecule itself; assay: crystal structure
soNrtR = target: T1, soNrtR; assay: X-ray crystal structure

Row | Binder | stoichiometry N (crystal structure) | binding result (soNrtR)
1 | B1 | 2 | –
2 | B2 | – | binds
